From patent publication US10100120B2, “Antibody which specifically binds to human CRTH2” (KYOWA HAKKO KIRIN CO., LTD, priority 2015, dated 2018)

B1: LV0HV1: humanized Lym2 antibody, VL LV0 (SEQ ID NO: 33), VH HV1 (SEQ ID NO: 51) (antibody, V domains shown)
VH: EVQLVESGGGVVQPGRSLRLSCAASGFTFSNYYMAWVRQAPGKGLEWVATISYDGSSTYYRDSVKGRFTISRDNAKNSLYLQMNSLRAEDTATYYCARHRGYYYSGAGYFDYWGQGTMVTVSS
VL: DIVMTQTPLSLPVTPGESASISCRSSQSLEYSDGYTYLEWYLQKPGQSPQVLIYGVSNRFSGVPDRFSGSGSGTDFTLKISRVEAEDVGVYYCFQATHDPLTFGQGTKLEIK
B2: Lym2 antibody: rat anti-human CRTH2 monoclonal antibody from hybridoma Lym2, rat IgG2b; VH SEQ ID NO: 17, VL SEQ ID NO: 19 (antibody, listed as Rattus norvegicus, V domains shown)
VH: EVQLVESGGGLVQPGRSMKLSCAASGFTFSNYYMAWVRQAPKKGLEWVATISYDGSSTYYRDSVKGRFTISRDNAKSTLYLQMDSLRSEDTATYYCARHRGYYYSGAGYFDYWGQGVMVTVSS
VL: DVVLTQTPVSLSVTLGDQASISCRSSQSLEYSDGYTYLEWYLQKPGQSPQVLIYGVSNRFSGVPDRFIGSGSGTDFTLKISRVEPEDLGVYYCFQATHDPLTFGSGTKLEIK

Tests used:
[1] = test system: differentiation-induced human mast cells; experiment: Reactivity against differentiation-induced human mast cells; format: binding; conditions: mast cells stimulated by IgE and crosslinking antibody; antibody 10 μg/mL; FIG. 14
Description: Mast cells were prepared according to the method described in Nature Protocols 2006, 1(4), 2178 to 2183. The mast cells after 11 weeks from the start of differentiation induction were washed with SM and seeded in a 96-well plate such that each well had 5×10^4 cells, and PE anti-human CD203c (E-NPP3) Antibody (Biolegend Inc.), Brilliant Violet 421 (trademark) anti-human CD117 (c-kit) Antibody (Biolegend Inc.), and Anti-Human Fc epsilon Receptor I alpha (FcεR1) PE (eBioscience) were added thereto to cause a reaction at 4° C. for 1 hour. After the cells were washed again, the cells were suspended with SM, and the fluorescent intensity was analyzed by flow cytometry (BD Biosciences, FACS CantoII). […]
After the cells were washed, streptavidin, Alexa Fluor 647 conjugate (Molecular Probes) diluted with SM was added to wells to which biotin-labeled LV0HV1, hu19A2 v52, ch8B1 v1, ch3C12, or ch31A5 was added, goat anti-Rat IgG Alexa 647 (Molecular Probes) diluted with SM was added to wells to which BM16 was added, and goat anti-Mouse IgG Alexa 647 (Molecular Probes) diluted with SM was added to wells to which 301108 was added at a final concentration of 10 μg/mL to cause a reaction at 4° C. for 40 minutes. After the cells were washed again, the cells were suspended with SM, and the fluorescent intensity was analyzed by flow cytometry (BD Biosciences, FACS CantoII).

[2] = test system: human eosinophils; experiment: Agonist activity using shape change of human eosinophils as index (Example 20); format: cell-based; conditions: 0 to 10 μg/mL, 1 hour; FIG. 17
Description: In the same experimental system as in Example 19 described above, rat anti-human CRTH2 antibody Lym2 at each final concentration of 0, 0.01, 0.1, 1, and 10 μg/mL was added and a reaction was performed for 1 hour and shape change of eosinophils was analyzed.

Row | Molecule | reactivity against mast cells [1] | shape change of eosinophils caused by antibody (agonist activity) [2]
1 | B1 | did not exhibit reactivity | 
2 | B2 |  | doesn't cause the shape change
